From patent US20140274782A1, “AFFINITY REAGENTS AND METHODS FOR DETECTION, PURIFICATION, AND PROTEOMIC ANALYSIS OF METHYLATED PROTEINS” (The Board of Trustees of the Leland Stanford Junior …, priority 2013, published 2014) come the findings set out here.

One test has as its target T1, G9a and GLP (Homo sapiens, UniProt Q96KQ7+Q9H9B1).
T1 sequence (Q96KQ7 2-1210 limits assumed): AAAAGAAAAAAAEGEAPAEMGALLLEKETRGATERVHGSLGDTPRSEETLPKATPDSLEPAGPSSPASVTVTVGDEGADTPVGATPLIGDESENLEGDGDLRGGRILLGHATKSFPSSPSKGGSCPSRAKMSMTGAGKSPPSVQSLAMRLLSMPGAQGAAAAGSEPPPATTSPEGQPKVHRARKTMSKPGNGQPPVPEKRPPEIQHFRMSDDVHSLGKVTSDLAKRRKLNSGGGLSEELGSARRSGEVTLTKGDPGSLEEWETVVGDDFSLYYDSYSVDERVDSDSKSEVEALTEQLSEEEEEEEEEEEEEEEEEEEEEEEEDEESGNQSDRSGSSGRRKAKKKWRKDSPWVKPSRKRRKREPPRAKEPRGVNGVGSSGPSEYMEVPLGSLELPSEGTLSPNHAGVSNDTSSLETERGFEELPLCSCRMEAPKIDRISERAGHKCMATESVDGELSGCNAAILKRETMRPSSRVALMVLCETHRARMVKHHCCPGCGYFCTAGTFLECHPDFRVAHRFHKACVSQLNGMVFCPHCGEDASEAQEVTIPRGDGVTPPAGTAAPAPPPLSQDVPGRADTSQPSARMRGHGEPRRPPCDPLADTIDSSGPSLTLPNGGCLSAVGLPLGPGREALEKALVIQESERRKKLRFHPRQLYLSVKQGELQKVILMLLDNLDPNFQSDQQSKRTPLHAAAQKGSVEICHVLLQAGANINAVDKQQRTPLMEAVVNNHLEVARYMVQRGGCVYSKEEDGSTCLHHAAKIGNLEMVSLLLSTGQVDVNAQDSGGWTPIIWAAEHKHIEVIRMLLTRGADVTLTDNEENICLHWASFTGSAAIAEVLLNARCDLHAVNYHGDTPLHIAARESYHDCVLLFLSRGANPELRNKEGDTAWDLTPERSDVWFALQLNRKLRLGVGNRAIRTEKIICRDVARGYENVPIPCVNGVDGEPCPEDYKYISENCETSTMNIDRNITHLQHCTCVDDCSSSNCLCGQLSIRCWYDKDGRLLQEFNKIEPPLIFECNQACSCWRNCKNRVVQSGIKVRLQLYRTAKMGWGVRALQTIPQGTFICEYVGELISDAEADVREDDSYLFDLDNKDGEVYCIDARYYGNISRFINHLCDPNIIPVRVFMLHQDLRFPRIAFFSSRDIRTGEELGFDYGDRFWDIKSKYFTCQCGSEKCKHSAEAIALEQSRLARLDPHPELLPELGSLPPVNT
T1 sequence (Q9H9B1 2-1298 limits assumed): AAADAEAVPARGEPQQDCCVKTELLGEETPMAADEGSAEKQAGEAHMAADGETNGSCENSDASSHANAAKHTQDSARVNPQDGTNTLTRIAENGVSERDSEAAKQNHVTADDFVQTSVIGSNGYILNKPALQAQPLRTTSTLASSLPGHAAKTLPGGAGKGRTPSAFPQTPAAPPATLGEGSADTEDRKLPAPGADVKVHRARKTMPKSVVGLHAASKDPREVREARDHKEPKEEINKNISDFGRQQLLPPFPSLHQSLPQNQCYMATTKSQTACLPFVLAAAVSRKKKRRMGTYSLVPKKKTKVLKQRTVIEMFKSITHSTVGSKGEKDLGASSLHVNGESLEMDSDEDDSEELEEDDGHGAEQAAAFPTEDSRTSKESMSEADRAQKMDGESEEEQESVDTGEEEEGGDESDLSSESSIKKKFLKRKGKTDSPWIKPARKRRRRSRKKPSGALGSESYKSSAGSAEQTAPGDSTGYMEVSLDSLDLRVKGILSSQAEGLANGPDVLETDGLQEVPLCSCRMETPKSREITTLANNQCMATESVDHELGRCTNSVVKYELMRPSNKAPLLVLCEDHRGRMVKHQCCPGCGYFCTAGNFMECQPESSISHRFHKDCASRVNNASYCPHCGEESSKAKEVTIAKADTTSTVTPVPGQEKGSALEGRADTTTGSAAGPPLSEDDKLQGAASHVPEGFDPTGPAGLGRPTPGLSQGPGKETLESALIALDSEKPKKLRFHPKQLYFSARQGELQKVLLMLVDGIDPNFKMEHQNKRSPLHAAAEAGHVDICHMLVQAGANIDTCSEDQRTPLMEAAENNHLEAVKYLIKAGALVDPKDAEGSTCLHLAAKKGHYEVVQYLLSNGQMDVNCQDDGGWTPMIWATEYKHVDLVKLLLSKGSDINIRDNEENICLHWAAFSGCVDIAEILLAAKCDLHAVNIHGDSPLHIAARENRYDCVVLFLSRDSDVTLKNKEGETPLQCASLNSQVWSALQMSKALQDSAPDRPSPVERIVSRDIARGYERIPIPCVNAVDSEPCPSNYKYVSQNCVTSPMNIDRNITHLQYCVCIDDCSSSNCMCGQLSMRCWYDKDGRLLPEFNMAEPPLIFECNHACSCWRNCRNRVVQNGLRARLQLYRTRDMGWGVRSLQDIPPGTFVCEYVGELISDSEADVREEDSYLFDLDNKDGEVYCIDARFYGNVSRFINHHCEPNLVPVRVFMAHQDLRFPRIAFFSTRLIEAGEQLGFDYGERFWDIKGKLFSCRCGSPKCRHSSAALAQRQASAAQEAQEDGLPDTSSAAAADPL
Nature of the test: Triple SILAC pull-down after UNC0638 treatment of 293T cells, DMSO/UNC0638 ratio of protein captured by 3×MBT.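 As to all read-outs here: mass spectrometry (Q-Exactive) SILAC quantitation, DMSO/UNC0638 ratio computed after subtracting 3×MBTD355N mutant pull-down background, only proteins with at least twofold 3×MBT over mutant signal considered.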 Details: endogenous in cells; host or cells: HEK 293T. Conditions: all values in log base 2; for Relative to UNC0638 UNC Heavy / Relative to UNC0638 UNC Light: SILAC ratio DMSO relative to UNC0638, pull-down with 3xMBT; for Relative to UNC0638 UNC Heavy: UNC0638 in heavy SILAC media; for Relative to UNC0638 UNC Light: UNC0638 in light SILAC media; for Relative to UNC0638 Average: average of UNC Light and UNC Heavy experiments. It is filed as cell-based.

The test system of a further test is 3×MBT domain of L3MBTL1. As to the kind of experiment: Triple SILAC pull-down, 3xMBT/3xMBTD355N ratio (cytoplasmic, nuclear and chromatin fractions of 293T cells).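 As to all read-outs here: proteins quantified with MaxQuant, requiring at least two unique peptides and quantification in both label directions, normalized to the mean of proteins from a digested loading control.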 The test is classed as binding, human. Conditions: SILAC ratio 3xMBT vs 3xMBTD355N pull-down, 293T cells, all values in log base 2; for 3xMBT/D355N UNC Heavy: experiment with UNC0638 in heavy SILAC media; for 3xMBT/D355N UNC Light: experiment with UNC0638 in light SILAC media.

B1: PUF60 (protein, UniProt Q9UHX1 1-559, looked up)
Poly(U)-binding-splicing …: MATATIALQVNGQQGGGSEPAAAAAVVAAGDKWKPPQGTDSIKMENGQSTAAKLGLPPLTPEQQEALQKAKKYAMEQSIKSVLVKQTIAHQQQQLTNLQMAAVTMGFGDPLSPLQSMAAQRQRALAIMCRVYVGSIYYELGEDTIRQAFAPFGPIKSIDMSWDSVTMKHKGFAFVEYEVPEAAQLALEQMNSVMLGGRNIKVGRPSNIGQAQPIIDQLAEEARAFNRIYVASVHQDLSDDDIKSVFEAFGKIKSCTLARDPTTGKHKGYGFIEYEKAQSSQDAVSSMNLFDLGGQYLRVGKAVTPPMPLLTPATPGGLPPAAAVAAAAATAKITAQEAVAGAAVLGTLGTPGLVSPALTLAQPLGTLPQAVMAAQAPGVITGVTPARPPIPVTIPSVGVVNPILASPPTLGLLEPKKEKEEEELFPESERPEMLSEQEHMSISGSSARHMVMQKLLRKQESTVMVLRNMVDPKDIDDDLEGEVTEECGKFGAVNRVIIYQEKQGEEEDAEIIVKIFVEFSIASETHKAIQALNGRWFAGRKVVAEVYDQERFDNSDLSA
With B1, in the test with G9a and GLP, the “Relative to UNC0638 UNC Heavy” value was 0.03 log base 2, the “Relative to UNC0638 UNC Light” value is 0.07 log base 2 and the “Relative to UNC0638 Average” value came to 0.05 log base 2. Further, in the test on 3×MBT domain of L3MBTL1, the “3xMBT/D355N UNC Heavy” value came to 1.71 log base 2 and the “3xMBT/D355N UNC Light” value was 2.61 log base 2.

B2: STRBP (protein, UniProt Q96SI9 1-672, looked up)
Spermatid perinuclear …: MRSIRSFANDDRHVMVKHSTIYPSPEELEAVQNMVSTVECALKHVSDWLDETNKGTKTEGETEVKKDEAGENYSKDQGGRTLCGVMRIGLVAKGLLIKDDMDLELVLMCKDKPTETLLNTVKDNLPIQIQKLTEEKYQVEQCVNEASIIIRNTKEPTLTLKVILTSPLIRDELEKKDGENVSMKDPPDLLDRQKCLNALASLRHAKWFQARANGLKSCVIVLRILRDLCNRVPTWAPLKGWPLELICEKSIGTCNRPLGAGEALRRVMECLASGILLPGGPGLHDPCERDPTDALSYMTIQQKEDITHSAQHALRLSAFGQIYKVLEMDPLPSSKPFQKYSWSVTDKEGAGSSALKRPFEDGLGDDKDPNKKMKRNLRKILDSKAIDLMNALMRLNQIRPGLQYKLLSQSGPVHAPVFTMSVDVDGTTYEASGPSKKTAKLHVAVKVLQAMGYPTGFDADIECMSSDEKSDNESKNETVSSNSSNNTGNSTTETSSTLEVRTQGPILTASGKNPVMELNEKRRGLKYELISETGGSHDKRFVMEVEVDGQKFRGAGPNKKVAKASAALAALEKLFSGPNAANNKKKKIIPQAKGVVNTAVSAAVQAVRGRGRGTLTRGAFVGATAAPGYIAPGYGTPYGYSTAAPAYGLPKRMVLLPVMKFPTYPVPHYSFF
Regarding B2, in the test with G9a and GLP, the “Relative to UNC0638 UNC Heavy” value worked out at 0.21 log base 2, the “Relative to UNC0638 UNC Light” value is −0.06 log base 2 and the “Relative to UNC0638 Average” value was 0.07 log base 2. Also, in the test with 3×MBT domain of L3MBTL1, the “3xMBT/D355N UNC Heavy” value amounted to 2.70 log base 2 and the “3xMBT/D355N UNC Light” value was 3.07 log base 2.

B3: DNAJC9 (protein, UniProt Q8WXX5 1-260, looked up)
DnaJ homolog subfamily C …: MGLLDLCEEVFGTADLYRVLGVRREASDGEVRRGYHKVSLQVHPDRVGEGDKEDATRRFQILGKVYSVLSDREQRAVYDEQGTVDEDSPVLTQDRDWEAYWRLLFKKISLEDIQAFEKTYKGSEEELADIKQAYLDFKGDMDQIMESVLCVQYTEEPRIRNIIQQAIDAGEVPSYNAFVKESKQKMNARKRRAQEEAKEAEMSRKELGLDEGVDSLKAAIQSRQKDRQKEMDNFLAQMEAKYCKSSKGGGKKSALKKEKK
For the molecule B3, in the test with G9a and GLP, the “Relative to UNC0638 UNC Heavy” value is given as 0.09 log base 2, the “Relative to UNC0638 UNC Light” value is on record as −0.02 log base 2 and the “Relative to UNC0638 Average” value was 0.04 log base 2. Also, in the test with 3×MBT domain of L3MBTL1, the “3xMBT/D355N UNC Heavy” value turned out to be 2.56 log base 2 and the “3xMBT/D355N UNC Light” value turned out to be 1.85 log base 2.

B4: RAD21 (protein, UniProt O60216 1-631, looked up)
Double-strand-break repair …: MFYAHFVLSKRGPLAKIWLAAHWDKKLTKAHVFECNLESSVESIISPKVKMALRTSGHLLLGVVRIYHRKAKYLLADCNEAFIKIKMAFRPGVVDLPEENREAAYNAITLPEEFHDFDQPLPDLDDIDVAQQFSLNQSRVEEITMREEVGNISILQENDFGDFGMDDREIMREGSAFEDDDMLVSTTTSNLLLESEQSTSNLNEKINHLEYEDQYKDDNFGEGNDGGILDDKLISNNDGGIFDDPPALSEAGVMLPEQPAHDDMDEDDNVSMGGPDSPDSVDPVEPMPTMTDQTTLVPNEEEAFALEPIDITVKETKAKRKRKLIVDSVKELDSKTIRAQLSDYSDIVTTLDLAPPTKKLMMWKETGGVEKLFSLPAQPLWNNRLLKLFTRCLTPLVPEDLRKRRKGGEADNLDEFLKEFENPEVPREDQQQQHQQRDVIDEPIIEEPSRLQESVMEASRTNIDESAMPPPPPQGVKRKAGQIDPEPVMPPQQVEQMEIPPVELPPEEPPNICQLIPELELLPEKEKEKEKEKEDDEEEEDEDASGGDQDQEERRWNKRTQQMLHGLQRALAKTGAESISLLELCRNTNRKQAAAKFYSFLVLKKQQAIELTQEEPYSDIIATPGPRFHII
B4: in the test with G9a and GLP, the “Relative to UNC0638 UNC Heavy” value is given as 0.07 log base 2, the “Relative to UNC0638 UNC Light” value is listed as 0.08 log base 2 and the “Relative to UNC0638 Average” value was 0.07 log base 2. Also, in the test on 3×MBT domain of L3MBTL1, the “3xMBT/D355N UNC Heavy” value stood at 2.15 log base 2 and the “3xMBT/D355N UNC Light” value came to 1.49 log base 2.
